Laboratory results taken from patent US20210032664, “ENGINEERED MEGANUCLEASES WITH RECOGNITION SEQUENCES FOUND IN THE HUMAN BETA-2 MICROGLOBULIN GENE” (Precision Biosciences, Inc., published 2021).
Where a chain is given by its changes, count along the chain named. Numbers in names are those of the source.

Assays:
Assay in all cases: cell_activity; human T cells, 1 ug mRNA, day 3
Conditions in all cases: tags: N-terminal SV40 NLS
B2M 13-14x.479 = biological target: T1, B2M 13-14x.479 (Artificial Sequence)
T1 chain: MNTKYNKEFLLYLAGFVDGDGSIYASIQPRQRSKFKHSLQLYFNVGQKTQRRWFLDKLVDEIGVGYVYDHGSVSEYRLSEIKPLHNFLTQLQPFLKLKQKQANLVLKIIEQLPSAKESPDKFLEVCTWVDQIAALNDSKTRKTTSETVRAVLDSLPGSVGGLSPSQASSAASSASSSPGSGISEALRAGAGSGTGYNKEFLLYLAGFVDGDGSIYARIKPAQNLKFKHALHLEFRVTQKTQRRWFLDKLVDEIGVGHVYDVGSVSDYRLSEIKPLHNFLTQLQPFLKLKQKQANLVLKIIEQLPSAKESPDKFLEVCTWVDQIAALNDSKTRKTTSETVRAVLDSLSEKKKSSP
Method in brief: (§1)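 Donor T cells activated 3 days with anti-CD3/anti-CD28, then electroporated with 1 μg meganuclease mRNA. Knockout scored by loss of β-2 microglobulin surface staining on CD3+ cells.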

B2M 13-14x.317 = biological target: T2, B2M 13-14x.317 (Artificial Sequence)
T2 chain: T1 chain with R32H, R217S, A221Y, N223T, A229Y, H231F, T237Y, V261T, D266E
Method in brief: as §1

B2M 13-14x.281 = biological target: T3, B2M 13-14x.281 (Artificial Sequence)
T3 chain: T1 chain with R32H, R217S, A221S, N223Q, A229Q, H231S, T237C, V261A, D266E
Method in brief: as §1

B2M 13-14x.325 = biological target: T4, B2M 13-14x.325 (Artificial Sequence)
T4 chain: T1 chain with R32H, R217S, A221S, N223A, A229S, H231A, T237F, V261T
Method in brief: as §1

B2M 13-14x.371 = biological target: T5, B2M 13-14x.371 (Artificial Sequence)
T5 chain: T1 chain with R32H, R217M, A221G, N223S, A229Y, H231S, T237V, V261A, D266Y
Method in brief: as §1

B1: B2M 13-14 recognition sequence (dsDNA)
DNA 1: CTATCTCTTGTACTACACTGAA
DNA 2: TTCAGTGTAGTACAAGAGATAG
Binder B1 has an activity (B2M 13-14x.479) of 67.2 % B2M-negative, an activity (B2M 13-14x.317) of 3.91 % B2M-negative and an activity (B2M 13-14x.281) of 53.6 % B2M-negative. The activity (B2M 13-14x.325) was 14.4 % B2M-negative and the activity (B2M 13-14x.371) was 22.6 % B2M-negative.
